Measured values taken from paper doi:10.1101/597906.
Read-outs that look alike come from different tables or passages of the source.

Experiments:
[1] = biological target: polymerized microtubules; experiment: single-molecule TIRF microscopy motility assay
[2] = biological target: polymerized microtubules; experiment: single-molecule TIRF microscopy motility assay; remark: listed apart in the source

Substance	landing rate (molecules bound to microtubules per length and time) [1]	landing rate (molecules bound to microtubules per length and time) [2]
full-length human KIF1A fused to a C-terminal mScarlet-strepII tag (from UniProt Q12756 1-1690) (natural protein)	0.012 /μm/sec	0.002 /μm/sec
full-length human KIF1A(A255V) fused to a C-terminal mScarlet-strepII tag (from UniProt Q12756 1-1690) (natural protein)		0.024 /μm/sec
full-length human KIF1A(R350G) fused to a C-terminal mScarlet-strepII tag (from UniProt Q12756 1-1690) (natural protein)		0.025 /μm/sec
full-length human KIF1A(V8M) fused to a C-terminal mScarlet-strepII tag (from UniProt Q12756 1-1690) (natural protein)		0.039 /μm/sec
